Where two headings read alike, the source gives them in different places.
Columns and labels:
[1] = biological target: human BCMA (on cells) (human) (UniProt Q02223); test: FACS on human BCMA-CHOK1 cells
[2] = biological target: human BCMA (on cells) (human) (UniProt Q02223); test: FACS on human BCMA-CHOK1 cells; remark: listed apart in the source
human GPRC5D (human) [3] = biological target: human GPRC5D (human) (UniProt Q9NZD1); test: FACS on human GPRC5D-CHOK1 cells
[4] = biological target: cynomolgus monkey BCMA (on cells) (cynomolgus monkey); test: FACS on cynomolgus BCMA-CHOK1 cells
Chain of cynomolgus monkey BCMA (on cells) (cynomolgus monkey) (Q02223 other isoform, or with tags, fused parts or gaps): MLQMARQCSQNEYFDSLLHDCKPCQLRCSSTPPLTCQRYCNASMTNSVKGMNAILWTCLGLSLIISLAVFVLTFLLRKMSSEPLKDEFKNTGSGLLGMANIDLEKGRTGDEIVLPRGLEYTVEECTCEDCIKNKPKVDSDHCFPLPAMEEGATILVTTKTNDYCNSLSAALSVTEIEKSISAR

[5] = biological target: cynomolgus monkey BCMA (on cells) (cynomolgus monkey); test: FACS on cynomolgus BCMA-CHOK1 cells; remark: listed apart in the source
[6] = biological target: cynomolgus monkey GPRC5D (cynomolgus monkey); test: FACS on cynomolgus GPRC5D-CHOK1 cells
Chain of cynomolgus monkey GPRC5D (cynomolgus monkey) (Q9NZD1 other isoform, or with tags, fused parts or gaps): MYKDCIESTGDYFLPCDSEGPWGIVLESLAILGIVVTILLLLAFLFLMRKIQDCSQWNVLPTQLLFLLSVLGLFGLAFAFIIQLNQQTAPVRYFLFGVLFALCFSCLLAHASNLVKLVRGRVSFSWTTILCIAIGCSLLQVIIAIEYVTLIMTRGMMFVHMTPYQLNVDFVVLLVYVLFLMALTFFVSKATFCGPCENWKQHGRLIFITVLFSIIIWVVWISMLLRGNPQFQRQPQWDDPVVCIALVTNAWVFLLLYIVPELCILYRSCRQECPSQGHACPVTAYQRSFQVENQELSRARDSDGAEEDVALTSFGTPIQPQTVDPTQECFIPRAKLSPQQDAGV

[7] = biological target: cynomolgus monkey GPRC5D (cynomolgus monkey); test: FACS on cynomolgus GPRC5D-CHOK1 cells; remark: listed apart in the source
human GPRC5D (human) [8] = biological target: human GPRC5D (human) (UniProt Q9NZD1); test: FACS on NCI-H929 cells (GPRC5D-expressing)
[9] = biological target: cynomolgus monkey CD3 (on cyno PBMCs) (cynomolgus monkey) (UniProt Q95LI5); test: FACS on cyno PBMCs
Chain of cynomolgus monkey CD3 (on cyno PBMCs) (cynomolgus monkey) (Q95LI5 22-198): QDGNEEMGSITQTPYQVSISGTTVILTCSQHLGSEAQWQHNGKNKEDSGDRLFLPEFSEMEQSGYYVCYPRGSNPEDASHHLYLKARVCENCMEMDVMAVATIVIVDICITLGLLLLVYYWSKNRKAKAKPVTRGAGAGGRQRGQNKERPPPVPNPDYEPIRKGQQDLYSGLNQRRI

[10] = biological target: human CD3 (on Jurkat cells and human PBMCs) (human) (UniProt P07766); test: FACS on human PBMCs
Chain of human CD3 (on Jurkat cells and human PBMCs) (human) (P07766 23-207): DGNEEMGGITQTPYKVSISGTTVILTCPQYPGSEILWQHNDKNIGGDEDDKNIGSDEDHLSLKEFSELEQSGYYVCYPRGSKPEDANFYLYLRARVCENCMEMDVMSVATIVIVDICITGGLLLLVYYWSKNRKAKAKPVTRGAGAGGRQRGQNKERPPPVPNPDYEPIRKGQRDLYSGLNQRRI

[11] = biological target: human CD3 (on Jurkat cells and human PBMCs) (human) (UniProt P07766); test: FACS on Jurkat cells
soluble BCMA = test: cell-based or functional assay
[12] = biological target: human BCMA (on cells) (human) (UniProt Q02223); test: FACS on NCI-H929 cells (express BCMA and GPRC5D)
[13] = biological target: human BCMA (on cells) (human) (UniProt Q02223); test: FACS on RPMI8226 cells (express BCMA and GPRC5D)
[14] = biological target: NCI-H929 tumor cells expressing the dual targets BCMA and GPRC5D; test: FACS on NCI-H929 cells (express BCMA and GPRC5D)
[15] = biological target: RPMI8226 tumor cells expressing the dual targets BCMA and GPRC5D; test: FACS on RPMI8226 cells (express BCMA and GPRC5D)

Chain of human BCMA (on cells) (human) (Q02223 whole entry): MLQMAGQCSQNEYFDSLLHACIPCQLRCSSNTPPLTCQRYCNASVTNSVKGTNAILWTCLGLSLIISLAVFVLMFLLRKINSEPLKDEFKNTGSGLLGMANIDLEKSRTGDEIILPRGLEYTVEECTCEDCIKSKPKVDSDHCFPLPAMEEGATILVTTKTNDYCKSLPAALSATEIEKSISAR
Chain of human GPRC5D (human) (Q9NZD1 whole entry): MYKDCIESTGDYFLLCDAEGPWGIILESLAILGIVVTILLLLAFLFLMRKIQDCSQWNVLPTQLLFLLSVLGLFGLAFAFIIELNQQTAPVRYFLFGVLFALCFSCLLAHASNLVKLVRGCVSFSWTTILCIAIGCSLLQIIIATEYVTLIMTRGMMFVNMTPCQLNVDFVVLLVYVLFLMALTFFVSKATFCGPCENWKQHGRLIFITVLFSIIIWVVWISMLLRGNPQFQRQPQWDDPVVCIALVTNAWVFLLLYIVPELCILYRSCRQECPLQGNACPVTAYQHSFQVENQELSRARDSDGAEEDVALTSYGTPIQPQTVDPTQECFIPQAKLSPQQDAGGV

Row | Substance | Top MFI [1] | Top MFI [2] | Top MFI (human GPRC5D (human) [3]) | Top MFI [4] | Top MFI [5] | Top MFI [6] | Top MFI [7] | Top MFI (human GPRC5D (human) [8]) | Top MFI [9] | Top MFI [10] | Top MFI [11] | Fold change of TDCC EC50 on NCI-H929 cells in the presence of 2500 ng/ml soluble BCMA (soluble BCMA) | Ratio (EC50) of TDCC on NCI-H929 cells, 2.5 ug/ml against 0 ug/ml soluble BCMA (soluble BCMA) | fold change of the TDCC EC50 on NCI-H929 cells in the presence of 2500 ng/ml soluble BCMA (soluble BCMA) | Top MFI [12] | Top MFI [13] | Top MFI [14] | Top MFI [15]
1 | IgG1 AA (antibody) | 89.1 | 232 | 36 | 82.6 | 382 | 85 | 1840 | 178 |  |  |  |  |  |  |  |  |  | 
2 | Teclistamab analogue (BCMA/CD3) (bispecific antibody) | 2280 |  | 160 | 1770 |  |  |  |  | 2060 | 672 | 825 | 25 fold | 21 fold | 25 fold | 669 | 169 |  | 
3 | hIgG1 LALA isotype (antibody) | 119 |  | 100 |  |  |  |  |  | 93.3 | 96.1 | 77.6 |  |  |  |  |  | 104 | 112
